The source of these data is FireProtDB (doi:10.1016/0022-2836(92)90387-y).

The chains are these.
B1: Ribonuclease, P00648 (parent)
chain: MMKMEGIALKKRLSWISVCLLVLVSAAGMLFSTAAKTETSSHKAHTEAQVINTFDGVADYLQTYHKLPDNYITKSEAQALGWVASKGNLADVAPGKSIGGDIFSNREGKLPGKSGRTWREADINYTSGFRNSDRILYSSDWLIYKTTDHYQTFTKIR

The series covers variants of B1. The note with it: Bacillus amyloliquefaciens; pH 6.3; 25 °C; Urea; Fluorescence; MES 50 mM; reversible: yes; structure 1BNI; whole UniProt chain shown.

For MMKMEGIALKKRLSWISVCLLVLVSAAGMLFSTAAKTETSSHKAHTEAQVINTFDGVADYLQTYHKLPDNYITKSEAQALGWVASKGNLADVAPGKSIGGDIFSNREGKLPGKSGRTWRAADINYTSGFRNSDRILYSSDWLIYKTTDHYQTFTKIR [E120A], the “ddG of mutation (higher = less stable)” value was found to be 2.3 kcal/mol and the unfolding free energy amounted to 6.53 kcal/mol.

As for MMKMEGIALKKRLSWISVCLLVLVSAAGMLFSTAAKTETSSHKAHTEAQVINTFDGVADYLQTYHKLPDNYITKSEAQALGWVASKGNLADVAPGKSIGGDIFSNAEGKLPGKSGRTWREADINYTSGFRNSDRILYSSDWLIYKTTDHYQTFTKIR [R106A], the “ddG of mutation (higher = less stable)” value was -0.64 kcal/mol and the unfolding free energy turned out to be 9.47 kcal/mol.

Turning to MMKMEGIALKKRLSWISVCLLVLVSAAGMLFSTAAKTETSSHKAHTEAQVINTFDGVADYLQTYHKLPDNYITKSEAQALGWVASKGNLADVAPGKSIGGDIFANREGKLPGKSGRTWREADINYTSGFRNSDRILYSSDWLIYKTTDHYQTFTKIR [S104A], the “ddG of mutation (higher = less stable)” value was -0.15 kcal/mol and the unfolding free energy stood at 8.98 kcal/mol.

For the variant MMKMEGIALKKRLSWISVCLLVLVSAAGMLFSTAAKTETSSHKAHTEAQVINTFDGVADYLQTYHKLPDNYITKSEAQALGWVASKGNLADVAPGKSIGGDIFSNREGKLPGKSGRTWREADINYTSGFRNSDRILYSSDWLIYKTTDAYQTFTKIR [H149A], the “ddG of mutation (higher = less stable)” value came to 0.24 kcal/mol and the unfolding free energy is 8.59 kcal/mol.

Take MMKMEGIALKKRLSWISVCLLVLVSAAGMLFSTAAKTETSSHKAHTEAQVINTFDGVADYLQTYHKLPDNYITKSEAQALGWVASKGNLADVAPGKSIGGNIFSNREGKLPGKSGRTWREADINYTSGFRNSDRILYSSDWLIYKTTDHYQTFTKIR [D101N]: the “ddG of mutation (higher = less stable)” value amounted to 2.67 kcal/mol and the unfolding free energy came out at 8.16 kcal/mol.

Take MMKMEGIALKKRLSWISVCLLVLVSAAGMLFSTAAKTETSSHKAHTEAQVINTFDGVADYLQTYHKLPDNYITKSEAQALGWVASKGNLADVAPGKSIGGDIFSNREGKLPGKSGRTWREADINYTSGFRNSDRILYSSDWLIYKTTDHYATFTKIR [Q151A]: the “ddG of mutation (higher = less stable)” value amounted to 0.16 kcal/mol and the unfolding free energy was 8.67 kcal/mol.

Regarding MMKMEGIALKKRLSWISVCLLVLVSAAGMLFSTAAKTETSSHKAHTEAQVINTFDGVADYLQTYHKLPDNYITASEAQALGWVASKGNLADVAPGKSIGGDIFSNREGKLPGKSGRTWREADINYTSGFRNSDRILYSSDWLIYKTTDHYQTFTKIR [K74A], the “ddG of mutation (higher = less stable)” value was -0.36 kcal/mol and the unfolding free energy was 9.19 kcal/mol.

Turning to MMKMEGIALKKRLSWISVCLLVLVSAAGMLFSTAAKTETSSHKAHTEAQVINTFDGVADYLQTYHKLPDNYITKSEAQALGWVASKGNLADVAPGKSIGGDIFSNREGKLPGKSGRTWREADINYTSGFRNSDRILYSSDWLIYKTTDHFQTFTKIR [Y150F], the “ddG of mutation (higher = less stable)” value stood at 0 kcal/mol and the unfolding free energy is 8.83 kcal/mol.

For MMKMEGIALKKRLSWISVCLLVLVSAAGMLFSTAAKTETSSHKAHTEAQVINTFDGVADYLQTYHKLPDNYITKSEAQALGWVASKGNLADVAPGKSIGGDIFSDREGKLPGKSGRTWREADINYTSGFRNSDRILYSSDWLIYKTTDHYQTFTKIR [N105D], the “ddG of mutation (higher = less stable)” value was -0.4 kcal/mol and the unfolding free energy stood at 9.23 kcal/mol.
